Results as given in article PMC7213981, “Enhancer architecture sensitizes cell specific responses to Notch gene dose via a bind and discard mechanism” (eLife, 2019).

T1: fly NICD (aa 1763–2412) (Drosophila, UniProt P07207 1763-2412)
T1 construct: Notch intracellular domain, Drosophila, residues 1763-2412; not the full-length NICD; also called Notch intracellular domain
T1 sequence (looked up): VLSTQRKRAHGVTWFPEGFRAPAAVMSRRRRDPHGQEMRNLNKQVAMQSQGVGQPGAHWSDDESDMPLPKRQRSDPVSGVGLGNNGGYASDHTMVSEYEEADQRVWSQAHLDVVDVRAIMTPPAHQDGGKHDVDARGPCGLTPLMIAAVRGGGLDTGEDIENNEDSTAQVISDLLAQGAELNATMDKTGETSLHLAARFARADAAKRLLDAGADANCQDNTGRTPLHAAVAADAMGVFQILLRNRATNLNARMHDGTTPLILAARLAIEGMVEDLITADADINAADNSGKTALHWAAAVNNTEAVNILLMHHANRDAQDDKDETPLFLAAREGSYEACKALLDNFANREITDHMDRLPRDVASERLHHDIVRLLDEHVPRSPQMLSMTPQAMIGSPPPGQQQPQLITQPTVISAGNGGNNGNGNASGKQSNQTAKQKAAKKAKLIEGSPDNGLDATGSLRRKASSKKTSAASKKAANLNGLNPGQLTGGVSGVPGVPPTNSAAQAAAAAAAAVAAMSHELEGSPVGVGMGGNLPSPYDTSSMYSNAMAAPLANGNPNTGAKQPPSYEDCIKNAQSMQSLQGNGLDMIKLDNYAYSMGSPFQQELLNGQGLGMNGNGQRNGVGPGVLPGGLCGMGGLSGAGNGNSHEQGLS

B1: fly Su(H) (aa 98–523) (domain or fragment)
chain: not shown
notes: Suppressor of Hairless, Drosophila, residues 98-523; also called CSL
B2: fly Mastermind (aa 87–307) (domain or fragment, Drosophila, UniProt P21519 87-307, looked up)
chain: PYNANLGATGGIAGITGGNGAGGPTNPGAVPTAPGDTMPTKRMPVVDRLRRRMENYRRRQTDCVPRYEQAFNTVCEQQNQETTVLQKRFLESKNKRAAKKTDKKLPDPSQQHQQQQHQQQQQHQQHQQHQQAQTMLAGQLQSSVHVQQKFLKRPAEDVDNGPDSFEPPHKLPNNNNNSNSNNNNGNANANNGGNGSNTGNNTNNNGNSTNNNGGSNNNGSE
notes: Mastermind, Drosophila, residues 87-307; not the full-length protein; also called Mam
B3: mouse N1ICD (aa 1744–2113) (domain or fragment, UniProt Q01705 1744-2113, looked up)
chain: VLLSRKRRRQHGQLWFPEGFKVSEASKKKRREPLGEDSVGLKPLKNASDGALMDDNQNEWGDEDLETKKFRFEEPVVLPDLSDQTDHRQWTQQHLDAADLRMSAMAPTPPQGEVDADCMDVNVRGPDGFTPLMIASCSGGGLETGNSEEEEDAPAVISDFIYQGASLHNQTDRTGETALHLAARYSRSDAAKRLLEASADANIQDNMGRTPLHAAVSADAQGVFQILLRNRATDLDARMHDGTTPLILAARLAVEGMLEDLINSHADVNAVDDLGKSALHWAAAVNNVDAAVVLLKNGANKDMQNNKEETPLFLAAREGSYETAKVLLDHFANRDITDHMDRLPRDIAQERMHHDIVRLLDEYNLVRSPQ
notes: Notch1 intracellular domain, mouse, residues 1744-2113; not the full-length NICD; also called N1ICD1; NICD
B4: human MAML1 (aa 1–280) (domain or fragment, UniProt Q92585 1-280, looked up)
chain: MVLPTCPMAEFALPRHSAVMERLRRRIELCRRHHSTCEARYEAVSPERLELERQHTFALHQRCIQAKAKRAGKHRQPPAATAPAPAAPAPRLDAADGPEHGRPATHLHDTVKRNLDSATSPQNGDQQNGYGDLFPGHKKTRREAPLGVAISSNGLPPASPLGQSDKPSGADALQSSGKHSLGLDSLNKKRLADSSLHLNGGSNPSESFPLSLNKELKQEPVEDLPCMITGTVGSISQSNLMPDLNLNEQEWKELIEELNRSVPDEDMKDLFNEDFEEKKD
notes: Mastermind-like protein 1, human, residues 1-280; not the full-length protein; The results list MAML1 among the 'mouse' proteins, the methods say human MAML1; also called Mastermind

Key:
Experiment in all cases: native gel or EMSA; complexes formed on IRDye-labelled 2xCSL and 1xSPS DNA probes in the same binding reaction; RBPJ/Su(H) 10 to 320 nM, 1 µM NICD/Mastermind; native polyacrylamide gel
Settings in all cases: both partners purified
fly NICD (aa 1763–2412) = molecular target: T1, fly NICD (aa 1763–2412)
fly Su(H) (aa 98–523) = molecular target: B1
Sequence of fly Su(H) (aa 98–523) (P28159 98-523): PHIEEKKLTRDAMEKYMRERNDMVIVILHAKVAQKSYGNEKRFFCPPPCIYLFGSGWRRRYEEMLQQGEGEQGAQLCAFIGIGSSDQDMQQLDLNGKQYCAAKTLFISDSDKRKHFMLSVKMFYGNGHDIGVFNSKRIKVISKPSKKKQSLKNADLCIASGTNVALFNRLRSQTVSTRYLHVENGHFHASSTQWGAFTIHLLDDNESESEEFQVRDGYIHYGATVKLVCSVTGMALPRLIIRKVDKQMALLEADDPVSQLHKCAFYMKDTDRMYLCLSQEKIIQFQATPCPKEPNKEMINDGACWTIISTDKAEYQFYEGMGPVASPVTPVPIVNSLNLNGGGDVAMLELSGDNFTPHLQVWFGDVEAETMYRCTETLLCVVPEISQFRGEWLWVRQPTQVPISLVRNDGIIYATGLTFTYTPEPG

mouse RBPJ (aa 53–474) = molecular target: T2, mouse RBPJ (aa 53–474) (mouse, UniProt P31266 53-474)
T2 construct: RBPJ, mouse, residues 53-474; also called CSL
T2 sequence (P31266 53-474): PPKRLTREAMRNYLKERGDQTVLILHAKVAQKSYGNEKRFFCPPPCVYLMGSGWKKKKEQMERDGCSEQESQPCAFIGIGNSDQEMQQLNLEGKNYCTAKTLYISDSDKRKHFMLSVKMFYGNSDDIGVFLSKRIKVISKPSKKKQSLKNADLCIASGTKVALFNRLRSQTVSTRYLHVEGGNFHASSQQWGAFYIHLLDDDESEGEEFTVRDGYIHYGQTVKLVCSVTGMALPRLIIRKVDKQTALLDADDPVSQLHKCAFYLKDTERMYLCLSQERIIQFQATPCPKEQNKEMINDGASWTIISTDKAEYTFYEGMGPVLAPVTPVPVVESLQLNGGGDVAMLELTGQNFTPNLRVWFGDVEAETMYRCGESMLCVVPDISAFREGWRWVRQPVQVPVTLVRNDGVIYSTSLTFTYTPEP

| binding result (mouse RBPJ (aa 53–474)) | Binder | also measured |
| --- | --- | --- |
|  | B1 | binding result (fly NICD (aa 1763–2412)): binds |
|  | B2 | binding result (fly Su(H) (aa 98–523)): binds |
| binds | B3 |  |
| binds | B4 |  |
